From patent US20090227489A1, “STAT3 Agonists and Antagonists and Therapeutic Uses Thereof” (Johns Hopkins University, priority 2000, published 2009)

Legend:
[1] = tested on: peritoneal macrophages and lymphocytes; test: Mice injected with transfected B16 cells: macrophage NO production and lymphocyte IFN-γ ELISPOT; format: in vivo; conditions: transfected B16 cells injected into mice
Procedure: FIG. 9A-B. Expression of Stat3β in tumor cells leads to activation of macrophages and T lymphocytes in vivo. Mice were injected with B16 cells (2×10^6/mouse) transfected with either GFP or Stat3β expression vectors. Five days later, peritoneal macrophages and lymphocytes were tested for NO production and IFN-γ production, respectively. A. NO production by peritoneal macrophages. B. IFN-γ ELISPOT of lymphocytes.
In addition to direct tumoricidal effect shown herein with production of NO by macrophages, innate immunity critically impacts the development of adaptive immune responses. […] Furthermore, a four-fold increase in IFN-γ production by lymphocytes derived from mice injected with Stat3β-transfected B16 cells was also detected (FIG. 9B).

[2] = tested on: B16 cells; test: Cell growth inhibition assay, live cells by trypan blue exclusion; format: cell-based, murine; conditions: 48 h later, vs pIRES-EGFP
Procedure: Cell growth inhibition assay. Cells were plated at 1.7×10^5 cells/well in 6-well plates, followed by transfection with either pIRES-EGFP or pIRES-Stat3β plasmids 24 h later. Cells were harvested at 24 h, 48 h or 72 h to determine the numbers of live cells. Cell viability was determined by trypan blue exclusion.
(§1) This G0/G1 phase arrest was observed as early as 24 hourspost transfection. At 48 hours post transfection with Stat3β vector, Annexin V-PE staining followed by FACS analysis to detect apoptotic activity was performed with transfected B16 cells. A high level of apoptosis in Stat3β transfected cells (75%) relative to empty vector transfected cells (25%) was observed, as shown in FIG. 2C. Increased levels of apoptosis as a result of Stat3β transfection was confirmed by confocal laser scanning microscope analysis using rhodamine-labelled TUNEL assay.

[3] = tested on: B16 cells; test: Cell cycle analysis by propidium iodide staining and FACS; format: cell-based, murine; conditions: transfected B16 cells, from 24 hours post transfection
Procedure: Cell cycle analysis. Cell cycle analysis based on DNA content was performed. Cells were harvested, washed twice in PBS and resuspended in 70% ethanol on ice for at least 30 min. After centrifugation, cells were resuspended in 1 ml of propidium iodide staining solution (50 μg propidium iodide, 1 mg RNase A and 1 mg glucose per ml PBS) and incubated at room temperature for 30 min. The cells were analyzed by FACS using ModFit LT cell cycle analysis software (Verity Software, Topsham, Me.). Cells transfected with vectors encoding EGFP were fixed in 1 ml of 0.5% formaldehyde on ice for 10 min. before adding 70% ethanol.
as §1

[4] = tested on: U266 cells; conditions: cited from earlier work
[5] = tested on: VEGF promoter; test: VEGF promoter luciferase reporter in B16 and SCK tumor cells; format: cell-based; conditions: B16 and SCK murine tumor cells, co-transfection
Text: FIG. 12A-B. Blocking Stat3 signaling in tumor cells inhibits VEGF promoter activity. Both B16 (A) and SCK (B) murine tumor cells were transfected with constructs containing the luciferase cDNA in the absence (pluc) or presence of the VEGF promoter (VEGF).
(§2) A plasmid construct containing the luciferase cDNA in the absence of the VEGF promoter was also transfected into 3T3 fibroblasts. Both of B16 and SCK tumor cells harbor constitutively activated Stat3. In the absence of Stat3β, VEGF promoter activity was readily detectable in both tumor cells as indicated by the high expression levels of luciferase protein. […] The inhibitory effect of Stat3β on the transcriptional activity of the VEGF promoter was also observed in the tumor cells transfected with Stat3 anti-sense oligonucleotides (FIG. 12A-B). It was also shown that blocking Stat3 signaling in tumor cells inhibits the expression of the endogeneous VEGF gene. B16 tumor cells were transiently transfected with Stat3β and the expression of endogeneous VEGF gene was determined at the RNA and protein levels.

[6] = tested on: VEGF; test: Expression of the endogeneous VEGF gene in B16 tumor cells (Western blot); format: cell-based, murine; conditions: ASO at 100 nM, 200 nM, or 300 nM
Procedure: FIG. 13. Inhibition of Stat3 signaling in tumor cells reduces the expression of the endogeneous VEGF gene. B16 tumor cells were transfected with either: A. Stat3β; or B. Stat3 anti-sense oligonucleotides (ASO) at 100 nM, 200 nM, or 300 nM.
as §2

[7] = tested on: B16 cells; test: RNase protection assays of cytokine and chemokine RNA in B16 cells; format: cell-based, murine; conditions: 36 h after transfection
Procedure: FIG. 7A-B. Stat3β expression in B16 cells upregulates the expression of pro-inflammatory chemokines and cytokines, which can stimulate peritoneal macrophages to produce NO. Elevated expression of pro-inflammatory cytokines and chemokines in B16 cells as a result of Stat3β expression (A. TNF-α, IL-6, IFN-β; B. IP-10). Total RNAs were prepared form mock-transfected, GFP-transfected, Stat3β-transfected and UV-irradiated B16 cells. Data shown have been confirmed with at least one more experiment, in which RNAs were prepared from independent transfectants and UV-irradiated B16 tumor cells.
RNase protection assays. 10 μg of total RNA isolated from either pIRES-EGFP- or pIRES-Stat3 β-transfected B16 cells (36 h after transfection) was hybridized to multi-template probes from PharMingen (mCK-5, Top Panel; mCK-3, Lower Panel) that were labeled with ^32P-dUTP using in vitro transcription. The RNA encoded by GAPDH housekeeping gene was used to normalize the amounts of RNAs loaded in each lane. Similar protocols were used to determine RNA expression profiles of macrophages treated with supernatants derived from B16 cells transfected with either Stat3β or GFP vector. […]
RNA expression profiles of a number of cytokines and chemokines in pIRES-Stat3β transfected B16 cells were determined. […]

B1: Stat3β: dominant-negative Stat3 variant, truncated form lacking the transactivation domain; delivered by the pIRES-Stat3β expression vector (protein)
chain: AQWNQLQQLDTRYLEQLHQLYSDSFPMELRQFLAPWIESQDWAYAASKESHATLVFHNLLGEIDQQYSRFLQESNVLYQHNLRRIKQFLQSRYLEKPMEIARIVARCLWEESRLLQTAATAAQQGGQANHPTAAVVTEKQQMLEQHLQDVRKRVQDLEQKMKVVENLQDDFDFNYKTLKSQGDMQDLNGNNQSVTRQKMQQLEQMLTALDQMRRSIVSELAGLLSAMEYVQKTLTDEELADWKRRQQIACIGGPPNICLDRLENWITSLAESQLQTRQQIKKLEELQQKVSYKGDPIVQHRPMLEERIVELFRNLMKSAFVVERQPCMPMHPDRPLVIKTGVQFTTKVRLLVKFPELNYQLKIKVCIDKDSGDVAALRGSRKFNILGTNTKVMNMEESNNGSLSAEFKHLTLREQRCGNGGRANCDASLIVTEELHLITFETEVYHQGLKIDLETHSLPVVVISNICQMPNAWASILWYNMLTNNPKNVNFFTKPPIGTWDQVAEVLSWQFSSTTKRGLSIEQLTTLAEKLLGPGVNYSGCQITWAKFCKENMAGKGFSFWVWLDNIIDLVKKYILALWNEGYIMGFISKERERAILSTKPPGTFLLRFSESSKEGGVTFTWVEKDISGKTQIQSVEPYTKQQLNNMSFAEIIMGYKIMDATNILVSPLVYLYPDIPKEEAFGKYCRPESQEHPEADPGAAPYLKTKFICVTFIDAVWK
increase in IFN-γ production by lymphocytes ([1]; ELISPOT): four-fold
NO production by peritoneal macrophages ([1]; five days later): clear induction of NO production
number of live B16 cells [2]: decreases dramatically
cell cycle distribution [3]: progressive accumulation in G0/G1 phase
expression of the Bcl-XL gene [4]: down-regulated expression of the Stat3-regulated Bcl-XL gene
sensitization to Fas-mediated apoptosis ([4]; in vitro): dramatic sensitization of cells to Fas-mediated apoptosis
transcriptional activity of the VEGF promoter (luciferase) [5]: greatly inhibited
expression of the endogeneous VEGF gene [6]: downregulates expression of the endogeneous VEGF gene
expression levels of IL-4 and IL-10 mRNAs [7]: but not IL-4 and IL-10, were elevated
expression levels of IFN-β, TNF-α, IL-6 and IP-10 mRNAs ([7]; vs mock, control vector and UV-irradiated B16 cells): elevated
